The values below come from patent publication US20200164083A1.

For the assay, the target named is capture reagent (antibody) of the exenatide ELISA kit (Peninsula Laboratories Inc., # S-1311). In words: ELISA (Peninsula Lab exenatide kit). Background: In an ELISA, binding on a coated surface is turned into a signal by an enzyme label.

In general, EC50 refers to the concentration needed to bring the measured effect to its halfway point. Read a high EC50 as lower potency in that assay. Take exenatide (peptide): the EC50 worked out at 200 pM.
